Measurements from publication PMC11098746 (2024).

T1: ADP339
T1 chain: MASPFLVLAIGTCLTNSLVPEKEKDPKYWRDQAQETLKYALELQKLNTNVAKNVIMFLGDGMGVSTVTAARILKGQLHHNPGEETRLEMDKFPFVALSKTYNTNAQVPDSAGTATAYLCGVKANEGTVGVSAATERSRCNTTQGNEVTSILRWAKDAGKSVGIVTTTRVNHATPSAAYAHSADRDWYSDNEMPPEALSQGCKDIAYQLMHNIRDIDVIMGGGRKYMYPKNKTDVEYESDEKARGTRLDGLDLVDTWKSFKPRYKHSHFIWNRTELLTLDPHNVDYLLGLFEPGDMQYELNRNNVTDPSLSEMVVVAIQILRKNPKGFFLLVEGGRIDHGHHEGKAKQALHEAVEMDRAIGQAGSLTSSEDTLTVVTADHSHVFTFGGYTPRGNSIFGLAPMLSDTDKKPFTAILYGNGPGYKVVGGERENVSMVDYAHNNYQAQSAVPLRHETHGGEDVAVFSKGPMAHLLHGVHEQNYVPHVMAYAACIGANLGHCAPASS

T2: ADP293
T2 chain: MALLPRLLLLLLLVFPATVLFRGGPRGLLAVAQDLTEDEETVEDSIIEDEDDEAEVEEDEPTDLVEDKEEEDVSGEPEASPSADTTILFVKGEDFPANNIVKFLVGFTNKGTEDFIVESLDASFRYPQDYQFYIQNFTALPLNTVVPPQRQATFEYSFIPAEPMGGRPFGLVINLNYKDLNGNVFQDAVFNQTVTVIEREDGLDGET

B1: ADP181 (protein)
chain: SSNDKNKINKNNMPLQRGASNLKDINIHNVEKKSNMESVNNNINNAACSKNLNANKVPNVAHTGVNKKGETKNEEVEKEENENEEIEKEEIENEENQQNEEDENEENQQNEEDENEENQQMNVNVDVSAEKKNKELPEEKKELQKNSEKNINKEVIKDSNKDNTFNFHKNINTAFNKNKNIYNNNNNNNNNNKAFIEKKEEAIDMKKTHCSNNNKMCKYNNMNNHMSTNKNNNQIFEESKQNVNKPIYNLKSLGNNAFKNDEKYNENDYKNNHDDDKKKYTDDSNEENIYEERNQKILLIHLLKNIKELLNRQRQNFNNFLSFLSENYQSYEKFYKSQKYQNGKNYIDKLDQQGELKNVAVVTHSFLDMSKAANGKKDKNGVFVKLMNDQNDDGDDTKDGDDTKDEDDHKNEDDHKNEDDHKNEDDHKNEDDHKNGDDNKNGDDHKNGDDNKNGDDDNGKKSHDISDIKNIIDTILQSDDITDEQKKYLEIIKKILDLEEDVLNKEKEQLQLNKNIIEVLMGKSDELRNIAVNLKNGNGDNEASQRVDLAQNIVSNLLNFAVQLKNTGNIVYNNIQGQGELLQSIEKNIDKAENDLKKSTSVNTAFTPKNVPNTEQNDQETQTDDDINDADIDENNNANDKNNCHMYKKNNCHMYKKNNCKKYFLNSHYNNYLCKKQKKYNKNDMGNKQKDNKKFKLNEAMKNHFYNIFVKETVMLKKLYKVLFELF
modifications: bait human Fc-tagged dimer; N-glycosylation sequons mutated in Plasmodium baits
B2: ADP188 (protein)
chain: QDEKSVKNICVCDFTDKLNFLPLEKTKILCELKPQYGEDIKIIANKEYEINCMNNAKVFCPLKDTFINNANIKLYSPKLHFEIKDITHKGKNAALYYLKIDEEASDIFFSCSIKPKQVSGLLEGEVRVNLKKHINEEYSIFNEEEDVHVCDFSKGNLDITPSAGFYLKNSRNVACIYRVIPNKLFLIKLPKLDIVTEKLLPSIVNCLSEFSFINFALKHVQEGDNYISFNVIFGEFKKHFNLACSLDLSDFQQEPCNLGKTANIAFIFSK
modifications: bait human Fc-tagged dimer; N-glycosylation sequons mutated in Plasmodium baits
B3: ADP246 (protein)
chain: GLCKPCTLENHYCEGGLESDITFNNKLIKGKFHTLPKKCPRGLGIPNIIKERNSINNCLCIHGKVQRTTENKNVECFPCPPNTFKENEYDNSCSGACPPFSTTFVGSSYENQCFCKNNYYLVSTDDENDANGNSINNNKNIYNNNNIYNNNNNNNNNNNNNFNNKADVKKKSCKICPIGAICNRGFNIYIYLKLLNDRSYNNINVIDHETPFPKYGYYAVYREKTNPAKSWDTLDDSAILNYVYPYHKLLLFIQKNIQKGNYFFLEKGNKFFLNDDFVEKMNEKSKYEEENANKFVTKSEIIHNVNTNNLKGKHNTLNNNNNNNNINKASSFLNQNNYNNDIIQLSSYENNPFKNLASTSEVSSNNNVISFIQNNDKTNNAANDNNIENLVDIFNKYVQEAKELQIQNRKFERIPDIHPCTIPNRCLGTLINLCSDGSTGYQCNNCAKNYDMSYFKSKCKKCQNLFYE
modifications: bait human Fc-tagged dimer; N-glycosylation sequons mutated in Plasmodium baits

Legend:
ADP339 = target: T1, ADP339; assay: AVEXIS screen signal:noise (double-corrected)
ADP293 = target: T2, ADP293; assay: AVEXIS screen signal:noise (double-corrected)

Row | Binder | binding score (ADP339) | binding score (ADP293)
1 | B1 | 6.19 | 
2 | B2 |  | 5.5
3 | B3 | 15.5 | 
